In patent US20220073963A1, “COMPOSITIONS AND METHODS FOR DETECTING AND TREATING TYPE 1 DIABETES AND OTHER AUTOIMMUNE DISEASES” (THE JOHNS HOPKINS UNIVERSITY, priority 2018, published 2022):
No end group written: not given here.

Experiments:
[1] = target: CD4 T cells from T1D subjects (antigen receptors not identified); assay: flow cytometry, tetramer staining of CD4 T cells; mimotope-stimulated cultures, NO AB
[2] = target: CD4 T cells from T1D subjects (antigen receptors not identified); assay: flow cytometry, tetramer staining of CD4 T cells; mimotope-stimulated cultures, AB BLOCKADE (cells preincubated with x-mAbR)
[3] = target: CD4 T cells from T1D subjects (antigen receptors not identified); assay: flow cytometry, tetramer staining of CD4 T cells; x-Id-stimulated cultures, AB BLOCKADE (cells preincubated with x-mAbR)
[4] = target: CD4 T cells from T1D subjects (antigen receptors not identified); assay: flow cytometry, tetramer staining of CD4 T cells; x-Id-stimulated cultures, NO AB
[5] = target: CD4 T cells from T1D subjects (antigen receptors not identified); assay: flow cytometry, tetramer staining of CD4 T cells; unstimulated cultures
[6] = Wang et al., 2018; cited from earlier work
HLA-DQ8 monomers = assay: Gentle SDS-PAGE assay of peptide binding to DQ8; design: species or system human; conditions: 100 μM peptide, 0.5 μM HLA-DQ8 monomers, 37° C., 72 h, pH 5.5
Protocol: Analysis of x-Id peptide binding to DQ8 using gentle SDS-PAGE assay. Gentle SDS-PAGE was used to assess formation of stable complexes between peptides and HLA-DQ8 molecules as previously described (Kim et al., 2013; Sadegh-Nasseri and Germain, 1991). Briefly, 0.5 μM of HLA-DQ8 monomers (provided by NIH tetramer core facility) were treated with thrombin to cleave and remove CLIP peptide. […] Reactions were neutralized, mixed with equal volumes of SDS-PAGE sample buffer containing 0.1% SDS (final concentration) and placed for 15 min at room temperature and run on 10% PAGE gels and silver-stained using a standard protocol.

CD4 T cells [7] = assay: CFSE proliferation assay with immobilized peptide-loaded DQ8 complexes; type: cell-based, human; conditions: PBMCs from DQ8+ T1D subjects, 7 days
Protocol: CFSE proliferation assay. Freshly isolated PBMCs were washed twice with warm (37° C.) 1×PBS to remove serum that affect staining and the cells were resuspended in warm (37° C.) 1×PBS at a density of 1.5-2.0×10^6 cells/ml. Cells were labeled with 1 μM CFSE (eBioscience) for 1-2 min at 37° C. with continuous vortexing. The labeling reaction was quenched by adding chilled complete culture media. CFSE-labeled cells were washed in 1×PBS, resuspended in complete media, and plated into 24-well tissue culture plates (1.5-2.0×10^6 cells/well in 1 mL complete culture medium). […] Alternatively, in a separate experiment, to evaluate the mAb-specific proliferative response, purified mAbR and mAbN (described later in the method) concentration of 2.5 and 5 ug, immobilized into the wells of 24-well plates, and used to stimulate CFSE-labeled PBMCs. CFSE labelled cells without stimulation and with CD3-28 stimulation were taken as specific negative and positive controls respectively. After 7 days of incubation, cultures were stained as indicated in FIG. legends and proliferation assessed by determining frequency of CFSElow CD4 T cells.

CD4 T cells [8] = assay: CFSE proliferation assay with soluble peptides; type: cell-based, human; conditions: soluble peptide, PBMCs from T1D and HC subjects, 7 days
Protocol: FIG. 14A-14B. […] Freshly isolated CFSE-labelled PBMCs from T1D and HC subjects were cultured in the presence or absence of indicated peptides for 7 days. Samples were stained, acquired and analyzed by FlowJo. CD4 T cells were gated and percentage of divided (CFSElow T cells) were determined. […] All peptides induced significant proliferation from diabetogenic subjects compared to HCs. n=4 per subject group, *p<0.05 by Two-way ANOVA with Sidak's multiple comparisons test. […] (FIG. 14B) Overlays show upregulation of CD69 by gated CFSElow T cells (red lines) versus […] non-proliferating (green) CD4 T cells from three subjects and three independent experiments. Numbers indicate percentages (Mean±SEM) of CFSElow CD4 T cells. CFSE proliferation assay. Freshly isolated PBMCs were washed twice with warm (37° C.) 1×PBS to remove serum that affect staining and the cells were resuspended in warm (37° C.) 1×PBS at a density of 1.5-2.0×10^6 cells/ml. Cells were labeled with 1 μM CFSE (eBioscience) for 1-2 min at 37° C. with continuous vortexing. The labeling reaction was quenched by adding chilled complete culture media. […] After 7 days of incubation, cultures were stained as indicated in FIG. legends and proliferation assessed by determining frequency of CFSElow CD4 T cells.

Q: Which results are given for CLIP-TET (peptide-MHC)?
A: tetramer+ among CD4 T cells [1]: 0.09%; tetramer+ among CD4 T cells [2]: 0.08%; tetramer+ among CD4 T cells [3]: 0.08%; tetramer+ among CD4 T cells [4]: 0.1%; tetramer+ among CD4 T cells [5]: 0.07%

Q: Which “potency relative to native insulin B:9-23” value [6] does the source give for “SHLVEELYLVAGEEG (listed as Homo sapiens) [superagonist]” here?
A: about 1000 fold

Q: Which “formation of SDS-stable complexes with soluble DQ8” value (“formation of SDS-stable complexes” for short) (HLA-DQ8 monomers) does the source give for “SHLVEALYLVCGERG (listed as Homo sapiens) [native insulin]” here?
A: did not form detectable DQ8 complexes

Q: And the “stimulation of CD4 T cells (CFSE proliferation and CD69 upregulation)” value (CD4 T cells [7])?
A: no significant responses

Q: Which “formation of SDS-stable complexes” value (HLA-DQ8 monomers) does the source give for “TP-Id: truncated version of x-Id that lacked cysteine and tryptophan at the terminals (ARQEDTAMVYYFDY)” here?
A: forming SDS-stable complexes

Q: What does the source list for “CARQEDTAMVYYFDYW (listed as Homo sapiens) [x-Id]”?
A: proliferation of CD4 T cells (CFSElow) (CD4 T cells [8]): stimulates CD4 T cells from T1D, but not HC, subjects; formation of SDS-stable complexes with soluble DQ8 (HLA-DQ8 monomers): forming SDS-stable complexes

Q: For “CARQRFWSGPLFDYW [h-Id, CDR3 peptide of the IGVH04-b+ IgD+ clonotype from HC #1]”, which “proliferation of CD4 T cells (CFSElow)” value (CD4 T cells [8]) is on record?
A: did not elicit proliferation of CD4 T cells from either T1D or HCs

Q: And the “formation of SDS-stable complexes” value (HLA-DQ8 monomers)?
A: did not form detectable DQ8 complexes

Q: And the “stimulation of CD4 T cells (CFSE proliferation and CD69 upregulation)” value (CD4 T cells [7])?
A: no significant responses

B1: HLA-DQ8 tetramer loaded with x-Id peptide (peptide-MHC, part only; not given: HLA-DQ8 alpha and beta chains, human, part only)
peptide: CARQEDTAMVYYFDYW
modifications: also: loaded in biotinylated HLA-DQ8 monomers tetramerized with PE-streptavidin
Q: With B1 as the molecule, how does the tetramer+ among CD4 T cells [1] read?
A: 1.07%

Q: And the tetramer+ among CD4 T cells [2]?
A: 0.36%

Q: And the tetramer+ among CD4 T cells [3]?
A: 0.35%

Q: What about the tetramer+ among CD4 T cells [4] of the same molecule?
A: 1.03%

Q: What about the tetramer+ among CD4 T cells [5] of the same molecule?
A: 0.56%
